Results as given in patent US20130336893A1 (Sanofi, published 2013).
*1 amine or outer side, *2 acyl side, *3 side chain or, on linkers, in order; H or OH if unused. Where no end group is shown, it is not given here. Side-chain parts run from the residue outwards. [ ]: non-standard residue; d: D form. The star is where a group is joined. Desaminohistidyl = O=C(CCc1c[nH]cn1)*; Ser(Me) = COC[C@H](N[*:1])C(=O)[*:2]; Palmitoyl = CCCCCCCCCCCCCCCC(=O)*; NMeQ = CN[C@@H](CCC(N)=O)C(=O)O; GABA = NCCCC(=O)O

B1: SEQ ID NO: (29) (peptide)
peptide: H[dS]QGTFTSDLSKQMDSRRAHDFIEWLKNGGPSSGAPPPS-NH2
modifications: N-terminus assumed
SMILES: CC[C@H](C)[C@H](NC(=O)[C@H](Cc1ccccc1)NC(=O)[C@H](CC(=O)O)NC(=O)[C@H](Cc1c[nH]cn1)NC(=O)[C@H](C)NC(=O)[C@H](CCCNC(=N)N)NC(=O)[C@H](CCCNC(=N)N)NC(=O)[C@H](CO)NC(=O)[C@H](CC(=O)O)NC(=O)[C@H](CCSC)NC(=O)[C@H](CCC(N)=O)NC(=O)[C@H](CCCCN)NC(=O)[C@H](CO)NC(=O)[C@H](CC(C)C)NC(=O)[C@H](CC(=O)O)NC(=O)[C@H](CO)NC(=O)[C@@H](NC(=O)[C@H](Cc1ccccc1)NC(=O)[C@@H](NC(=O)CNC(=O)[C@H](CCC(N)=O)NC(=O)[C@@H](CO)NC(=O)[C@@H](N)Cc1c[nH]cn1)[C@@H](C)O)[C@@H](C)O)C(=O)N[C@@H](CCC(=O)O)C(=O)N[C@@H](Cc1c[nH]c2ccccc12)C(=O)N[C@@H](CC(C)C)C(=O)N[C@@H](CCCCN)C(=O)N[C@@H](CC(N)=O)C(=O)NCC(=O)NCC(=O)N1CCC[C@H]1C(=O)N[C@@H](CO)C(=O)N[C@@H](CO)C(=O)NCC(=O)N[C@@H](C)C(=O)N1CCC[C@H]1C(=O)N1CCC[C@H]1C(=O)N1CCC[C@H]1C(=O)N[C@@H](CO)C(N)=O
B2: SEQ ID NO: (125) (peptide)
peptide: H[dS]QGTFTSDLSKQMESRRAQDFIEWLKSGGPSSGAPPPSK([GABA-Palmitoyl])-NH2
modifications: N-terminus assumed
SMILES: CCCCCCCCCCCCCCCC(=O)NCCCC(=O)NCCCC[C@H](NC(=O)[C@H](CO)NC(=O)[C@@H]1CCCN1C(=O)[C@@H]1CCCN1C(=O)[C@@H]1CCCN1C(=O)[C@H](C)NC(=O)CNC(=O)[C@H](CO)NC(=O)[C@H](CO)NC(=O)[C@@H]1CCCN1C(=O)CNC(=O)CNC(=O)[C@H](CO)NC(=O)[C@H](CCCCN)NC(=O)[C@H](CC(C)C)NC(=O)[C@H](Cc1c[nH]c2ccccc12)NC(=O)[C@H](CCC(=O)O)NC(=O)[C@@H](NC(=O)[C@H](Cc1ccccc1)NC(=O)[C@H](CC(=O)O)NC(=O)[C@H](CCC(N)=O)NC(=O)[C@H](C)NC(=O)[C@H](CCCNC(=N)N)NC(=O)[C@H](CCCNC(=N)N)NC(=O)[C@H](CO)NC(=O)[C@H](CCC(=O)O)NC(=O)[C@H](CCSC)NC(=O)[C@H](CCC(N)=O)NC(=O)[C@H](CCCCN)NC(=O)[C@H](CO)NC(=O)[C@H](CC(C)C)NC(=O)[C@H](CC(=O)O)NC(=O)[C@H](CO)NC(=O)[C@@H](NC(=O)[C@H](Cc1ccccc1)NC(=O)[C@@H](NC(=O)CNC(=O)[C@H](CCC(N)=O)NC(=O)[C@@H](CO)NC(=O)[C@@H](N)Cc1c[nH]cn1)[C@@H](C)O)[C@@H](C)O)[C@@H](C)CC)C(N)=O
B3: SEQ ID NO: (28) (peptide)
peptide: H[Ser(Me)]QGTFTSDLSKQMDSRRAQDFIEWLKNGGPSSGAPPPS-NH2
modifications: N-terminus assumed
SMILES: CC[C@H](C)[C@H](NC(=O)[C@H](Cc1ccccc1)NC(=O)[C@H](CC(=O)O)NC(=O)[C@H](CCC(N)=O)NC(=O)[C@H](C)NC(=O)[C@H](CCCNC(=N)N)NC(=O)[C@H](CCCNC(=N)N)NC(=O)[C@H](CO)NC(=O)[C@H](CC(=O)O)NC(=O)[C@H](CCSC)NC(=O)[C@H](CCC(N)=O)NC(=O)[C@H](CCCCN)NC(=O)[C@H](CO)NC(=O)[C@H](CC(C)C)NC(=O)[C@H](CC(=O)O)NC(=O)[C@H](CO)NC(=O)[C@@H](NC(=O)[C@H](Cc1ccccc1)NC(=O)[C@@H](NC(=O)CNC(=O)[C@H](CCC(N)=O)NC(=O)[C@H](COC)NC(=O)[C@@H](N)Cc1c[nH]cn1)[C@@H](C)O)[C@@H](C)O)C(=O)N[C@@H](CCC(=O)O)C(=O)N[C@@H](Cc1c[nH]c2ccccc12)C(=O)N[C@@H](CC(C)C)C(=O)N[C@@H](CCCCN)C(=O)N[C@@H](CC(N)=O)C(=O)NCC(=O)NCC(=O)N1CCC[C@H]1C(=O)N[C@@H](CO)C(=O)N[C@@H](CO)C(=O)NCC(=O)N[C@@H](C)C(=O)N1CCC[C@H]1C(=O)N1CCC[C@H]1C(=O)N1CCC[C@H]1C(=O)N[C@@H](CO)C(N)=O
B4: SEQ ID NO: (30) (peptide)
peptide: H[dS]QGTFTSDLSKQMDSRRAKDFIEWLKNGGPSSGAPPPS-NH2
modifications: N-terminus assumed
SMILES: CC[C@H](C)[C@H](NC(=O)[C@H](Cc1ccccc1)NC(=O)[C@H](CC(=O)O)NC(=O)[C@H](CCCCN)NC(=O)[C@H](C)NC(=O)[C@H](CCCNC(=N)N)NC(=O)[C@H](CCCNC(=N)N)NC(=O)[C@H](CO)NC(=O)[C@H](CC(=O)O)NC(=O)[C@H](CCSC)NC(=O)[C@H](CCC(N)=O)NC(=O)[C@H](CCCCN)NC(=O)[C@H](CO)NC(=O)[C@H](CC(C)C)NC(=O)[C@H](CC(=O)O)NC(=O)[C@H](CO)NC(=O)[C@@H](NC(=O)[C@H](Cc1ccccc1)NC(=O)[C@@H](NC(=O)CNC(=O)[C@H](CCC(N)=O)NC(=O)[C@@H](CO)NC(=O)[C@@H](N)Cc1c[nH]cn1)[C@@H](C)O)[C@@H](C)O)C(=O)N[C@@H](CCC(=O)O)C(=O)N[C@@H](Cc1c[nH]c2ccccc12)C(=O)N[C@@H](CC(C)C)C(=O)N[C@@H](CCCCN)C(=O)N[C@@H](CC(N)=O)C(=O)NCC(=O)NCC(=O)N1CCC[C@H]1C(=O)N[C@@H](CO)C(=O)N[C@@H](CO)C(=O)NCC(=O)N[C@@H](C)C(=O)N1CCC[C@H]1C(=O)N1CCC[C@H]1C(=O)N1CCC[C@H]1C(=O)N[C@@H](CO)C(N)=O
B5: SEQ ID NO: (24) (peptide)
peptide: [Desaminohistidyl]SQGTFTSDLSKQMDSRRAQDFIEWLKNGGPSSGAPPPS-NH2
SMILES: CC[C@H](C)[C@H](NC(=O)[C@H](Cc1ccccc1)NC(=O)[C@H](CC(=O)O)NC(=O)[C@H](CCC(N)=O)NC(=O)[C@H](C)NC(=O)[C@H](CCCNC(=N)N)NC(=O)[C@H](CCCNC(=N)N)NC(=O)[C@H](CO)NC(=O)[C@H](CC(=O)O)NC(=O)[C@H](CCSC)NC(=O)[C@H](CCC(N)=O)NC(=O)[C@H](CCCCN)NC(=O)[C@H](CO)NC(=O)[C@H](CC(C)C)NC(=O)[C@H](CC(=O)O)NC(=O)[C@H](CO)NC(=O)[C@@H](NC(=O)[C@H](Cc1ccccc1)NC(=O)[C@@H](NC(=O)CNC(=O)[C@H](CCC(N)=O)NC(=O)[C@H](CO)NC(=O)CCc1c[nH]cn1)[C@@H](C)O)[C@@H](C)O)C(=O)N[C@@H](CCC(=O)O)C(=O)N[C@@H](Cc1c[nH]c2ccccc12)C(=O)N[C@@H](CC(C)C)C(=O)N[C@@H](CCCCN)C(=O)N[C@@H](CC(N)=O)C(=O)NCC(=O)NCC(=O)N1CCC[C@H]1C(=O)N[C@@H](CO)C(=O)N[C@@H](CO)C(=O)NCC(=O)N[C@@H](C)C(=O)N1CCC[C@H]1C(=O)N1CCC[C@H]1C(=O)N1CCC[C@H]1C(=O)N[C@@H](CO)C(N)=O
B6: SEQ ID NO: (25) (peptide)
peptide: HS[NMeQ]GTFTSDLSKQMDSRRAQDFIEWLKNGGPSSGAPPPS-NH2
modifications: N-terminus assumed
SMILES: CC[C@H](C)[C@H](NC(=O)[C@H](Cc1ccccc1)NC(=O)[C@H](CC(=O)O)NC(=O)[C@H](CCC(N)=O)NC(=O)[C@H](C)NC(=O)[C@H](CCCNC(=N)N)NC(=O)[C@H](CCCNC(=N)N)NC(=O)[C@H](CO)NC(=O)[C@H](CC(=O)O)NC(=O)[C@H](CCSC)NC(=O)[C@H](CCC(N)=O)NC(=O)[C@H](CCCCN)NC(=O)[C@H](CO)NC(=O)[C@H](CC(C)C)NC(=O)[C@H](CC(=O)O)NC(=O)[C@H](CO)NC(=O)[C@@H](NC(=O)[C@H](Cc1ccccc1)NC(=O)[C@@H](NC(=O)CNC(=O)[C@H](CCC(N)=O)N(C)C(=O)[C@H](CO)NC(=O)[C@@H](N)Cc1c[nH]cn1)[C@@H](C)O)[C@@H](C)O)C(=O)N[C@@H](CCC(=O)O)C(=O)N[C@@H](Cc1c[nH]c2ccccc12)C(=O)N[C@@H](CC(C)C)C(=O)N[C@@H](CCCCN)C(=O)N[C@@H](CC(N)=O)C(=O)NCC(=O)NCC(=O)N1CCC[C@H]1C(=O)N[C@@H](CO)C(=O)N[C@@H](CO)C(=O)NCC(=O)N[C@@H](C)C(=O)N1CCC[C@H]1C(=O)N1CCC[C@H]1C(=O)N1CCC[C@H]1C(=O)N[C@@H](CO)C(N)=O

Legend:
[1] = target: human GLP-1 receptor (human, UniProt P43220 24-463); test: cell-based or functional assay
[2] = target: human glucagon receptor (human, UniProt P47871 26-477); test: cell-based or functional assay
Chain of human glucagon receptor (P47871 26-477): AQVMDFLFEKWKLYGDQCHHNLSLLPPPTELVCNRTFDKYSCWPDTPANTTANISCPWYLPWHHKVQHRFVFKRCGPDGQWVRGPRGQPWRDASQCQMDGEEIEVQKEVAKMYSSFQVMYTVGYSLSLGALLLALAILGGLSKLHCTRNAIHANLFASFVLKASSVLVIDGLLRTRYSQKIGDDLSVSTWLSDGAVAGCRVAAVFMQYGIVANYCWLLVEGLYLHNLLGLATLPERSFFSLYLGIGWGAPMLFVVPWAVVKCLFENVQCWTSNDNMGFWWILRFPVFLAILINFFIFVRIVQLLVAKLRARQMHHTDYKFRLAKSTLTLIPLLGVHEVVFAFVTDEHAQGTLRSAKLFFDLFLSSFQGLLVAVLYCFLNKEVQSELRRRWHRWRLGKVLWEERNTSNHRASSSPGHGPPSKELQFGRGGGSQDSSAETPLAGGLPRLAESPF

| Binder | EC50 hGLP-1R (cAMP formation) [1] | EC50 hGlucagonR (cAMP formation) [2] |
| --- | --- | --- |
| HSEGTFTSDLSKQMDSRRAQDFIEWLKNGGPSSGAPPPS-NH2 [SEQ ID NO: (10)] | 0.0313 nM | 16.7 nM |
| HSQGTFTSDLSKQMDSRRAQDFIEWLKNGGPSSGAPPPK(Palmitoyl)-NH2 [SEQ ID NO: (21)] | 0.0782 nM | 0.547 nM |
| B1 | 0.028 nM | 0.149 nM |
| B2 | 0.0108 nM | 0.0171 nM |
| HSQGTFTSDLSKQMDKRRAQDFIEWLKNGGPSSGAPPPS-NH2 [SEQ ID NO: (19)] | 0.017 nM | 0.052 nM |
| HSQGTFTSDLSKQMDSRRAQDFIEWLKNGGPSSGAPPPS-NH2 [SEQ ID NO: (9)] | 0.0222 nM | 0.0264 nM |
| B3 | 0.128 nM | 6.48 nM |
| HSQGTFTSDLSKQMDSRAAQLFIEWLKNGGPSSGAPPPS-NH2 [SEQ ID NO: (22)] | 0.0008 nM | 0.127 nM |
| B4 | 0.0505 nM | 1.05 nM |
| B5 | 0.264 nM | 0.168 nM |
| B6 | 0.17 nM | 0.171 nM |
